Assay results taken from article PMC5432123.
Positions count from the first letter of the chain named. Names may count otherwise. One block for each binder: values may come before it.

Molecular target: microtubules (tubulin)

- in vitro MT gliding assay, speed of MT gliding (n = 25): 1.68 mμ/sec
B1: UNC-104 (1-371 a.a), truncated version (domain or fragment)
chain: MSSVKVAVRVRPFNQREISNTSKCVLQVNGNTTTINGHSINKENFSFNFDHSYWSFARNDPHFITQKQVYEELGVEMLEHAFEGYNVCIFAYGQTGSGKSYTMMGKANDPDEMGIIPRLCNDLFARIDNNNDKDVQYSVEVSYMEIYCERVKDLLNPNSGGNLRVREHPLLGPYVDDLTKMAVCSYHDICNLMDEGNKARTVAATNMNSTSSRSHAVFTIVLTQKRHCADSNLDTEKHSKISLVDLAGSERANSTGAEGQRLKEGANINKSLTTLGLVISKLAEESTKKKKSNKGVIPYRDSVLTWLLRENLGGNSKTAMLAALSPADINFDETLSTLRYADRAKQIVCQAVVNEDPNAKLIRELNEEVIK

- in vitro MT gliding assay, speed of MT gliding (n = 25): 1.35 μm/sec
B2: UNC-104 (1-371 a.a) V6I, truncated version (domain or fragment)
chain: B1 chain with V6I
